Common to all, as to test: flow cytometry on cells
(In general: In flow cytometry, cells or beads pass a laser one at a time.)

Experiment [1] deals with BANAL-103 RBD, yeast-displayed (bat sarbecovirus BANAL-103).
Experiment [2] deals with BANAL-236 RBD, yeast-displayed (bat sarbecovirus BANAL-236).
Experiment [3] addresses Khosta-2 RBD, yeast-displayed (bat sarbecovirus Khosta-2).
For experiment [4], the target named is Rs4874 RBD, yeast-displayed (bat sarbecovirus Rs4874).
Experiment [5] addresses WIV16 RBD, yeast-displayed (bat sarbecovirus WIV16).

Chain of CDY14HL-Fc1 (Q9BYF1 18-615): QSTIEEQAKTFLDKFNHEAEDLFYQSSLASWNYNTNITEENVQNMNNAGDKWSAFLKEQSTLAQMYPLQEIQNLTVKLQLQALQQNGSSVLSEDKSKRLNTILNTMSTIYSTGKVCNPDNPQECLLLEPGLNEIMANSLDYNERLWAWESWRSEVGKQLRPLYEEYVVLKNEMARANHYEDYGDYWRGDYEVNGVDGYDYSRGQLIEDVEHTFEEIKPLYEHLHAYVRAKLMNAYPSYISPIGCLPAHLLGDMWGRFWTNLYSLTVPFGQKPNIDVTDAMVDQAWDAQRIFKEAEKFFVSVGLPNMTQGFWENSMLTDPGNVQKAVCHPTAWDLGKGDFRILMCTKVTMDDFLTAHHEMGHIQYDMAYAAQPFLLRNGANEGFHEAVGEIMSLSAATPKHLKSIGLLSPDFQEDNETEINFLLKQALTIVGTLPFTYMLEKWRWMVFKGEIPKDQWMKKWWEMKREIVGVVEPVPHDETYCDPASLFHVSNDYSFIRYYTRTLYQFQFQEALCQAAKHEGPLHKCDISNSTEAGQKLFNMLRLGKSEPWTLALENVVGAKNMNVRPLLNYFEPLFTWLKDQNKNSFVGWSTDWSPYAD

The term Kd denotes the constant that tells how readily two partners part at equilibrium. As to “CDY14HL-Fc1 (from UniProt Q9BYF1 18-615) (Fc fusion)”, the Kd in experiment [1] came to 0.3 nM; in experiment [2] it was 0.24 nM; in experiment [3], 1.9 nM; in experiment [4] it was 0.23 nM; in experiment [5] it was 0.24 nM.

Source of the values: article PMC9409550.
